Key:
E. coli ATCC 25922 = test: MIC by microdilution in TP-Na 10 mM pH 6.15; type: cell-based, Escherichia coli
Protocol: The IKB206tags endolysin was purified from the Escherichia coli BL21 (DE3) strain, as previously described.
Checkerboard tests were assessed by the microdilution method, as previously described (Moody JA 1992, Moellering E G., Jr.1996). […] Each microtiter well contained 100 μl of a E. coli inoculum of 1×10^5 CFUs mL^−1, with or without the corresponding compounds, in a final volume of 200 μl of Sodium phosphate (TP-Na) buffer 10 mM pH 6.15 per well and the plates were incubated at 37° C. for 17 h.

[1] = system: E. coli strain DSM 17076 with serotype O157: H7; test: Enzyme bactericidal activity assay on E. coli serotype O157:H7; type: cell-based, Escherichia coli; settings: 15 μg mL^−1
Protocol: (§1) Briefly, the different bacterial cultures were incubated in the specific media (Table 1) at 37° C. or 30° C., according to the strain, until reaching an A600 of 0.3. The cells were then deposited by centrifugation (4500×g, 10 min) and washed twice with the corresponding buffer, with the A600 being adjusted to ≈0.3. A volume of 160 μl of the bacterial suspension was transferred to sterile 96-well plates to which there were added 40 μl of the enzyme under study in a range of doses comprised between 1 and 60 μg mL^−1. The control wells were treated with the same volume of buffer […]. The plates were incubated at 37° C. Samples were taken at different times, serial dilutions performed, and they were seeded in plates containing the specific medium to determine viable bacteria. The experiments were repeated at least 3 times. The bactericidal effect of IKB206 (and its variants) was quantified as the number of logs reduced in the presence of treatment, after a given incubation time (log10 (N0/Ni), where N0=number of CFU mL^−1 before treatment, and Ni=number of CFU mL^−1 after the corresponding incubation time in the presence of each treatment).

[2] = system: E. coli strain ATCC 25922; test: Enzyme bactericidal activity assay on E. coli ATCC 25922; type: cell-based, Escherichia coli
Protocol: as §1

[3] = system: M. lysodeikticus lyophilized cells; test: Enzyme specific activity assay (turbidometric, A450 decrease); type: biochemical, Micrococcus lysodeikticus; settings: 37° C., 10 mM Na2HPO4/NaH2PO4 pH 6
Protocol: The specific activity (U mG-1) was determined using a suspension of 0.6 mg mL^−1 of M. lysodeikticus lyophilized cells as substrate resuspended in cold buffer of the enzyme (10 mM Na2HPO4/NaH2PO4, PH 6 for IKB206tags and 50 mM K2HPO4/KH2PO4, pH 6.2 for egg white lysozyme) and incubating this suspension at different concentrations of the enzyme. Egg white lysozyme (Fisher BioReagents™ Lysozyme) was used as a control. Specifically, 100 μL of the M. lysodeikticus suspension were plated, in triplicate, into a multi-well plate and 100 μL of the different enzyme concentrations were added to the corresponding well. The plate was incubated at the appropriate temperature into a thermostated spectrophotometer (37° C. for IKB206tags and 25° C. for egg white lysozyme) and the A450 decrease was monitored over 10 min.
Unit definition: 1 unit is that amount of enzyme needed to catalyze a decrease in absorbance at 450 nm of 0.001/min at the appropriate temperature and pH of each lysozyme in a 1 cm cuvette due to lysis using a ˜0.4-0.6 mg/mL suspension of M. lysodeikticus.

## C[C@@H](O)[C@H]1C(=O)N2C(C(=O)O)=C(SCCN=CN)C[C@H]12 [Imepenem]
E. coli ATCC 25922
  MIC: 2.34 µg/mL

## C[C@@H](O)[C@H]1C(=O)N2C(C(=O)O)=C(S[C@@H]3CN[C@H](C(=O)N(C)C)C3)[C@H](C)[C@H]12 [Meropenem]
E. coli ATCC 25922
  MIC: 0.59 µg/mL

B1: IKB206tags: IKB206 with S-tag at the N-terminal end, 6-His tag at the C-terminal end and thrombin cleavage sites; 329 amino acids (protein)
chain: MKETAAAKFERQHMDSPDLGTLVPRGSMAISDPMKTSPNGIAVTKYFESFEARAYPDPATGGKPYTIGFGTTVYPSGAPVRLGDVCTKEQAEKYLQNDLAKFEKIVSDAVRVPLNQGQFDALVSFTYNLGPANLRSSTLLKKLNAGDYAGAAKEFPRWNRANGKVMKGLTRRRAAEQCLFEGMGGASAIERGVAAANSGTPKNVSRGTSSTKTTPKYKVKNGDNLTKIAKKHNTTVATLLKLNPGIKDPNMIRVGQTLNVTGSGGKTHKVKSGDTLSKIAVDNKTTVSKLMNLNPEITNPNHIKVGQTIRLSLGTLVPRGSLEHHHHHH
modifications: S-tag, 6-His tag, thrombin sites; chimeric endolysin (IKB206tags)
notes: IKB206 with S-tag at the N-terminal end, 6-His tag at the C-terminal end and thrombin cleavage sites; 329 amino acids
[1]
  bactericidal activity on serotype O157:H7: significantly reduced the number of E. coli strain DSM 17076 cells, although it was not capable of killing the entire culture
[2]; 5 μg mL^−1, 15 min of incubation
  reduction in CFU mL^−1: significant
[2]; 15 μg mL^−1
  incubation time for killing the entire culture: 30 min
[2]; 15 μg mL^−1, 5 minutes of incubation
  reduction of the number of CFU mL^−1: more than 2 logs
[2]; 60 μg mL^−1
  incubation time for killing the entire culture: 15 min
[3]
  specific activity: around 8100 U mg^−1

B2: IKB206AD8: putative endolysin from phage Arya alone, catalytic domain of IKB206 without the D8 domain (protein)
chain: MKTSPNGIAVTKYFESFEARAYPDPATGGKPYTIGFGTTVYPSGAPVRLGDVCTKEQAEKYLQNDLAKFEKIVSDAVRVPLNQGQFDALVSFTYNLGPANLRSSTLLKKLNAGDYAGAAKEFPRWNRANGKVMKGLTRRRAAEQCLFEGMGGASAIERGVAAA
modifications: Enterobacter phage Arya; (1)..(163) Endolysin
[2]
  bactericidal activity in the absence of the D8 domain: presented bactericidal activity
  incubation times to obtain the same levels of bactericidal activity as IKB206: longer incubation times were needed
[2]; 15 μg mL^−1, 60 minutes
  reduction in CFU/mL: about 3 log
[2]; 15 μg mL^−1, 180 minutes
  reduction in CFU/mL: about 5 log

Reference: patent US12655409B2, “Recombinant lysin and its use in the treatment of Gram-negative bacterial infections” (TELUM THERAPEUTICS S.L., priority 2020, dated 2026)
